Experimental data from the supplement of paper PMC9112550, “Optimization of the antimicrobial peptide Bac7 by deep mutational scanning” (BMC Biology, 2022).

Tested on: Escherichia coli TOP10
Assay: shrunken log2 fold change of peptide-encoding DNA abundance (4.5 h post-induction vs induction); higher = less antimicrobial activity (less host growth inhibition)
Details: time post-induction: 4.5 h; library: site-saturation at positions 5, 18, 19, 20
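Note: peptides expressed intracellularly from a pBAD plasmid library in pooled LB shake-flask culture, induced with 0.3% L-arabinose, DNA abundance read by NGS, three biological replicates, DESeq2 with apeglm shrinkage.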

In order of falling “shrunken log2 fold change” value:
1. RRIRMRPPRLPRPRPRPKASPRP  1.97
2. RRIRVRPPRLPRPRPRPGVWPRP  1.88
3. RRIRMRPPRLPRPRPRPLQHPRP  1.47
4. RRIRRRPPRLPRPRPRPLCPPRP  1.21
5. RRIRGRPPRLPRPRPRPKAGPRP  1.17
6. RRIRWRPPRLPRPRPRPRPPPRP  1.11
7. RRIRGRPPRLPRPRPRPLAQPRP  0.888
8. RRIRIRPPRLPRPRPRPGFHPRP  0.876
9. RRIRMRPPRLPRPRPRPPFDPRP  0.873
10. RRIRKRPPRLPRPRPRPLAAPRP  0.847
11. RRIRWRPPRLPRPRPRPSAKPRP  0.833
12. RRIRKRPPRLPRPRPRPADWPRP  0.666
13. RRIRMRPPRLPRPRPRPPVEPRP  0.664
14. RRIRLRPPRLPRPRPRPLARPRP  0.615
15. RRIRMRPPRLPRPRPRPAQQPRP  0.612
16. RRIRRRPPRLPRPRPRPLAKPRP  0.571
17. RRIRTRPPRLPRPRPRPTWDPRP  0.478
18. RRIRKRPPRLPRPRPRPQGAPRP  0.451
19. RRIRGRPPRLPRPRPRPEQIPRP  0.438
20. RRIRARPPRLPRPRPRPFIFPRP  0.419
21. RRIRMRPPRLPRPRPRPAMQPRP  0.404
22. RRIRFRPPRLPRPRPRPDSRPRP  0.391
23. RRIRMRPPRLPRPRPRPEFQPRP  0.372
24. RRIRERPPRLPRPRPRPAPQPRP  0.31
25. RRIRERPPRLPRPRPRPLRNPRP  0.308
26. RRIRARPPRLPRPRPRPISAPRP  0.294
27. RRIRCRPPRLPRPRPRPLPGPRP  0.262
28. RRIRWRPPRLPRPRPRPGFFPRP  0.26
29. RRIRSRPPRLPRPRPRPIKKPRP  0.234
30. RRIRVRPPRLPRPRPRPSWLPRP  0.23
31. RRIRMRPPRLPRPRPRPSQDPRP  0.224
32. RRIRVRPPRLPRPRPRPGPEPRP  0.22
33. RRIRARPPRLPRPRPRPMAVPRP  0.209
34. RRIRLRPPRLPRPRPRPDEAPRP  0.189
35. RRIRARPPRLPRPRPRPKSSPRP  0.188
36. RRIRARPPRLPRPRPRPWPMPRP  0.18
37. RRIRLRPPRLPRPRPRPEMNPRP  0.176
38. RRIRWRPPRLPRPRPRPAVDPRP  0.174
39. RRIRERPPRLPRPRPRPIFWPRP  0.167
40. RRIRDRPPRLPRPRPRPHFEPRP  0.163
41. RRIRWRPPRLPRPRPRPKQWPRP  0.155
42. RRIRPRPPRLPRPRPRPLQDPRP  0.151
43. RRIRLRPPRLPRPRPRPKFGPRP  0.146
44. RRIRSRPPRLPRPRPRPGTTPRP  0.132
45. RRIRKRPPRLPRPRPRPADVPRP  0.127
46. RRIRSRPPRLPRPRPRPQEMPRP  0.111
47. RRIRQRPPRLPRPRPRPPNPPRP  0.109
48. RRIRERPPRLPRPRPRPITVPRP  0.0995
49. RRIRERPPRLPRPRPRPAGYPRP  0.0991
50. RRIRSRPPRLPRPRPRPLCGPRP  0.0948
51. RRIRGRPPRLPRPRPRPFPDPRP  0.0778
52. RRIRVRPPRLPRPRPRPQGIPRP  0.0752
53. RRIRKRPPRLPRPRPRPWSHPRP  0.0601
54. RRIRERPPRLPRPRPRPNDQPRP  0.0572
55. RRIRHRPPRLPRPRPRPRECPRP  0.0559
56. RRIRLRPPRLPRPRPRPRRMPRP  0.053
57. RRIRDRPPRLPRPRPRPHREPRP  0.0506
58. RRIRDRPPRLPRPRPRPPYRPRP  0.0425
59. RRIRTRPPRLPRPRPRPPHTPRP  0.0399
60. RRIRARPPRLPRPRPRPNNPPRP  0.0346
61. RRIRLRPPRLPRPRPRPSAHPRP  0.0318
62. RRIRGRPPRLPRPRPRPDSDPRP  0.0289
63. RRIRARPPRLPRPRPRPGYPPRP  0.0269
64. RRIRCRPPRLPRPRPRPHGEPRP  0.0148
65. RRIRFRPPRLPRPRPRPIRDPRP  0.0144
66. RRIRERPPRLPRPRPRPSACPRP  0.0132
67. RRIRFRPPRLPRPRPRPNWAPRP  0.00252
68. RRIRLRPPRLPRPRPRPCLWPRP  -0.000705
69. RRIRCRPPRLPRPRPRPACTPRP  -0.00637
70. RRIRQRPPRLPRPRPRPFKIPRP  -0.00995
71. RRIRMRPPRLPRPRPRPMHFPRP  -0.0157
72. RRIRQRPPRLPRPRPRPGPVPRP  -0.0186
73. RRIRKRPPRLPRPRPRPSSMPRP  -0.0241
74. RRIRRRPPRLPRPRPRPEHTPRP  -0.0248
75. RRIRCRPPRLPRPRPRPQWMPRP  -0.0314
76. RRIRNRPPRLPRPRPRPDYAPRP  -0.0367
77. RRIRRRPPRLPRPRPRPTNNPRP  -0.0392
78. RRIRIRPPRLPRPRPRPEDYPRP  -0.0393
79. RRIRTRPPRLPRPRPRPHYVPRP  -0.0402
80. RRIRFRPPRLPRPRPRPFWVPRP  -0.0435
81. RRIRIRPPRLPRPRPRPMVSPRP  -0.044
82. RRIRLRPPRLPRPRPRPFPDPRP  -0.0465
83. RRIRFRPPRLPRPRPRPMHYPRP  -0.0476
84. RRIRFRPPRLPRPRPRPVETPRP  -0.0497
85. RRIRKRPPRLPRPRPRPDHQPRP  -0.0497
86. RRIRERPPRLPRPRPRPFEDPRP  -0.0547
87. RRIRERPPRLPRPRPRPIQVPRP  -0.0549
88. RRIRVRPPRLPRPRPRPTSVPRP  -0.0603
89. RRIRKRPPRLPRPRPRPFEWPRP  -0.0618
90. RRIRPRPPRLPRPRPRPECIPRP  -0.0733
91. RRIRERPPRLPRPRPRPKKTPRP  -0.0747
92. RRIRFRPPRLPRPRPRPEWVPRP  -0.0753
93. RRIRNRPPRLPRPRPRPNKEPRP  -0.0761
94. RRIRHRPPRLPRPRPRPAALPRP  -0.0796
95. RRIRMRPPRLPRPRPRPLKHPRP  -0.0893
96. RRIRERPPRLPRPRPRPFDAPRP  -0.0912
97. RRIRKRPPRLPRPRPRPGIPPRP  -0.0948
98. RRIRWRPPRLPRPRPRPKWNPRP  -0.095
99. RRIRVRPPRLPRPRPRPWCFPRP  -0.0951
100. RRIRYRPPRLPRPRPRPVLYPRP  -0.0955
101. RRIRNRPPRLPRPRPRPQLQPRP  -0.0979
102. RRIRHRPPRLPRPRPRPAVQPRP  -0.0994
103. RRIRDRPPRLPRPRPRPYKSPRP  -0.106
104. RRIRDRPPRLPRPRPRPYEAPRP  -0.108
105. RRIRDRPPRLPRPRPRPQKSPRP  -0.11
106. RRIRVRPPRLPRPRPRPINCPRP  -0.12
107. RRIRWRPPRLPRPRPRPNIAPRP  -0.121
108. RRIRERPPRLPRPRPRPLVDPRP  -0.135
109. RRIRVRPPRLPRPRPRPVSTPRP  -0.145
110. RRIRHRPPRLPRPRPRPILVPRP  -0.148
111. RRIRFRPPRLPRPRPRPTFTPRP  -0.157
112. RRIRPRPPRLPRPRPRPTNCPRP  -0.169
113. RRIRLRPPRLPRPRPRPVKNPRP  -0.176
114. RRIRWRPPRLPRPRPRPFVQPRP  -0.184
115. RRIRKRPPRLPRPRPRPTYQPRP  -0.191
116. RRIRFRPPRLPRPRPRPTYAPRP  -0.203
117. RRIRMRPPRLPRPRPRPQYDPRP  -0.204
118. RRIRWRPPRLPRPRPRPFNSPRP  -0.207
119. RRIRQRPPRLPRPRPRPEYPPRP  -0.22
120. RRIRERPPRLPRPRPRPHPSPRP  -0.222
121. RRIRSRPPRLPRPRPRPTFYPRP  -0.231
122. RRIRIRPPRLPRPRPRPRWNPRP  -0.249
123. RRIRHRPPRLPRPRPRPPCHPRP  -0.253
124. RRIRYRPPRLPRPRPRPILIPRP  -0.256
125. RRIRHRPPRLPRPRPRPFMMPRP  -0.272
126. RRIRQRPPRLPRPRPRPYHEPRP  -0.288
127. RRIRSRPPRLPRPRPRPHRLPRP  -0.288
128. RRIRVRPPRLPRPRPRPVKIPRP  -0.29
129. RRIRPRPPRLPRPRPRPQKQPRP  -0.294
130. RRIRSRPPRLPRPRPRPSTWPRP  -0.301
131. RRIRCRPPRLPRPRPRPSPIPRP  -0.32
132. RRIRLRPPRLPRPRPRPTCYPRP  -0.371
133. RRIRARPPRLPRPRPRPHYMPRP  -0.381
134. RRIRHRPPRLPRPRPRPIYKPRP  -0.393
135. RRIRCRPPRLPRPRPRPQSEPRP  -0.398
136. RRIRFRPPRLPRPRPRPQNIPRP  -0.411
137. RRIRQRPPRLPRPRPRPITLPRP  -0.418
138. RRIRDRPPRLPRPRPRPHSKPRP  -0.456
139. RRIRFRPPRLPRPRPRPCTMPRP  -0.462
140. RRIRIRPPRLPRPRPRPYDRPRP  -0.499
141. RRIRYRPPRLPRPRPRPIPWPRP  -0.545
142. RRIRSRPPRLPRPRPRPLNHPRP  -0.554
143. RRIRIRPPRLPRPRPRPQCHPRP  -0.594
144. RRIRYRPPRLPRPRPRPDIIPRP  -0.609
145. RRIRYRPPRLPRPRPRPTSIPRP  -0.656
146. RRIRIRPPRLPRPRPRPFGFPRP  -0.694
147. RRIRCRPPRLPRPRPRPFLHPRP  -0.703
148. RRIRERPPRLPRPRPRPDDIPRP  -0.793
149. RRIRYRPPRLPRPRPRPDFYPRP  -1.15
150. RRIRYRPPRLPRPRPRPFMLPRP  -1.19
